Experimental data: the DeepSol protein solubility set

Assay: soluble on expression in E. coli; label from the status in PepcDB or PDB records

Row | Sequence | soluble on expression in E. coli
1 | MSKQQIGVVGMAVMGRNLALNIESRGYTVSIFNRSREKTEEVIAENPGKKLVPYYTVKEFVESLETPRRILLMVKAGAGTDAAIDSLKPYLDKGDIIIDGGNTFFQDTIRRNRELSAEGFNFIGTGVSGGEEGALKGPSIMPGGQKEAYELVAPILTKIAAVAEDGEPCVTYIGADGAGHYVKMVHNGIEYGDMQLIAEAYSLLKGGLNLTNEELAQTFTEWNNGELSSYLIDITKDIFTKKDEDGNYLVDVILDEAANKGTGKWTSQSALDLGEPLSLITESVFARYISSLKDQRVAASKVLSGPQAQPAGDKAEFIEKVRRALYLGKIVSYAQGFSQLRAASEEYNWDLNYGEIAKIFRAGCIIRAQFLQKITDAYAENPQIANLLLAPYFKQIADDYQQALRDVVAYAVQNGIPVPTFSAAVAYYDSYRAAVLPANLIQAQRDYFGAHTYKRIDKEGVFHTEWLD | soluble
2 | MTKTLPKDFIFGGATAAYQAEGATHTDGKGPVAWDKYLEDNYWYTAEPASDFYHKYPVDLELAEEYGVNGIRISIAWSRIFPTGYGEVNEKGVEFYHKLFAECHKRHVEPFVTLHHFDTPEALHSNGDFLNRENIEHFIDYAAFCFEEFPEVNYWTTFNEIGPIGDGQYLVGKFPPGIKYDLAKVFQSHHNMMVSHARAVKLYKDKGYKGEIGVVHALPTKYPYDPENPADVRAAELEDIIHNKFILDATYLGHYSDKTMEGVNHILAENGGELDLRDEDFQALDAAKDLNDFLGINYYMSDWMQAFDGETEIIHNGKGEKGSSKYQIKGVGRRVAPDYVPRTDWDWIIYPEGLYDQIMRVKNDYPNYKKIYITCNGLGYKDEFVDNTVYDDGRIDYVKQHLEVLSDAIADGANVKGYFIWSLMDVFSWSNGYEKRYGLFYVDFDTQERYPKKSAHWYKKLAETQVIE | soluble
3 | LPSGIIIKGIGGFYYVKTENGIYECKARGVFRKDSKIPLPGDEVVISVIDEEKKKGYIEEICERKIQLIRPAVANINQIALVVSVKSPLPDFVLLDKLLITVMQKELNAIICINKIDLDEGYKDVIIDCYKGTGVETVCVSSVLNVGFEQLAKMLEGKTTVFAGQSGVGKSTILNKILDSYVMETGEISDKIERGRHTTRHAELLELKSGGFVVDTPGFSSFELSEIEPKELQNYYPEFRDYIGKCRFAGCSHISEPGCMVKSALENGMINKDRYGRYIIFYNMLKDKQRRKYS | not soluble
4 | AHHHHHHGSETEEIEAPKKKVPLAMVTIRPAKLFDIPYIMRIEQMSFKEAYPRGLFLTFLEANPDTFLVAEYNGKIVGYVMGYLRPDMEGHIMSIAVHPDYRGNGIGKALMIAVIKKLFEKGARWIGLEVRVSNYRAINLYKKLGFKIVKRIISYYSDGEDAYYMILRPEDFERVILS | not soluble
5 | GMDMKTKLQTIIGMFQITAWDETSYFESDNGAKLTQAVITQSYQGVLQGHSEIRYLMSYQDNANATFVGFEHFTGSLGDKKGSFILQHKGLFAAGVASSEFELVERSATGDFVHLVGKGHFVSTENGQANYQITLQDS | soluble
6 | MHVAMALADIDRVGGVVIIDPVVHPLTPKHPPNQAERGQIRADRCSTAVFAWLFHEWNATGRSALMRGLTCFAGNTNAQPKHPRRAFRDRLGSTGPRPPRLTVASTPSRQPHHRRILIVTKAKSGSVAPELDTPTDLPPQSVEKISTALNGLLADSFALYLKTKNFHWHISGRHFRDYHLLLDEQSAQILATTDDLAERVRKVGGTTLRSIGHISKLQSIQDNNDDYVPPREMLRELMNDNKKVAAAMRKAHEIVDECKDAASAGLLENFIDETEKRTWFLFEATRQEGANEA | not soluble
7 | MAHHHHHHMIVLLRKNNLKNTLRLFPLGCNNKLVFMRGYINEQTKGPIEKKTTDNNEKMLLNKTLEDVKVSKENSCNALFDECLEELYRMKKKVDKESVEYDNSPIIEELNREELKITRNIFERINKKKKHVSNLSYKDIYIDPYWNPFKDVDNLKQEILYEFNEYSKMASIVELKKQRRAIKKSLKEQYKLYNPYSEEYNKHFNLNMDNDVKEQQMECHDKDEKYWNPSFNKRKILNIKSPFIWRYTHLLHHFIGENGLILPRKINMTTRKQQIQIFKSICIARRMALYPYDKKPEKDDLIPLMDPLQFLLDELIHRYIQLNDLRAQAIIKVMINRYPSLNYYKYFFYESKKEKDKNEKTAQNEQEENVSEKKEPFSQMLQKYKKNYYENFYKY | not soluble
8 | MADKSAEKERLFNEWFTASYDRLRGTLRRYGMLDEDNFHDTYLFVRRQVLVPGKDITDYDAYFIGCYKKAALVKIKRENRYAHPEDDFFLRCGEEAKFLSEDDLNGCERLVRDILRFVRQKFSYEEYRMFMLRFYEAQFSFKALAECMGISASAISQKVCRIVDAVRTHSGFAWRSQMLAVESFMY | not soluble
9 | MARATTKQDLIMASNGQFEKLWVLIDGMSDDLQNATFADQMATAGKEAHWGRDKNLRDVLVHLYEWHQLLLNWINSNSKGERKPFLPEPYNWKTYSVMNVEFWKKHQQTPLAEAKDKLKESHRQVMALIETFSNDELFAKGVFDWTDTSTLGAYCVSATSSHYDWAMKKIKLHIKTGK | not soluble
10 | KMPSPYSHKEFVKEIAPTAQKLSKIYGVRSSIIIGQAALDSHFGSTLLASKYHNLFSIEASPGQGAVRLKSHEYKNGRWQEVTNRYLVYESWKESLYDYMAILHGNKIWDKALYTTMMTSSGYKTVARALQAAGFNSDPNYADKLIAVIEENNL | soluble
11 | FSNKRVLVEKEGEAGIAVMKFKNPPVNSLSLEFLTEFVISLEKLENDKSIRGVILTSERPGIFSAGLDLMEMYGRNPAHYAEYWKAVQELWLRLYLSNLTLISAINGASPAGGCLMALTCDYRIMADNSKYTIGLNESLLGIVAPFWLKDNYVNTIGHRAAERALQLGTLFPPAEALKVGLVDEVVPEDQVHSKARSVMAKWFTIPDHSRQLTKSMMRKATADNLIKQREADIQNFTSFISRDSIQKSLHVYLEKLKQKKG | soluble
12 | AIARPSSLRQYLDSVPLPPCQEQQPKASAELDHKACYLCHSLLMLAGVVVSCQDITPDQWGELQLLCMQLDRHISTQIRESPQAMHRTMLKDLATQTYIRWQELLTHCQPQAQYFSPWKDI | soluble
13 | MGSDKIHHHHHHMMIQYPKLTISDRLNQHRERLPLADLQETFKESWTVNEKWQVTFAITDSLAYEQAIKLLDVQNIVHYDGQSYVIIQCTKTVSGGVSVYEVTASHLFYRLANNARQNNVKTGTLTYGLSEAVNFMLDNNDQGLTAKFIGDFPRIKIENLGNSSFNKFLQDYTSKFDASYVIDNQQIIFYSATYLKHQPVIDTLFYQHDVENVKLSLDTTSLANEVRCLGKPIDKSSGNNDSQTKYQVDFTYRDDASIQKWGLQRGDPLSDERFTDQGSMTEYARQTVQAQPIATLTTTAWNVTIKQCETVKLVMPNLDWQTTVALNGYERNPFNQFSLPTITFDNASLAVNDINVAMFKHITNAHNHVGKTMVQLMAALGDIQNGDLITDEDTIDKLNELGGIS | not soluble
14 | MSLSVEFNKQQVRPRSEISPQDCWDITPLYLNRKAWKADLDSFGLKTDGSPTWPALQATQYQLDNSESLLSLLTTLFSIERKLNKLYVYAHLTHDQDITNQEGIADLKSITHLHTLFAEETSWVQPALTSLSESLIAQHLSAPCLAPYRFYLEKIFRLSIHTGTPGEEKILASAFTPLEVASKAFSSLSDSEIPFGQATDSEGNSHPLSHALASLYMQSTDRELRKTSYLAQCERYHSYRHTFANLLNGKIQAHVFYAKNKRYNSCLQAALYHNNIPTTVYTNLIDIVKKNSSLITKYFSIKQRCLNLKDFHFYDVYAPLSQSKEKKYTFQEAVDLIYTSLSPLGTEYIDTLKQGLTTQGWVDKYENLNKRSGAYSSGCYDSHPYVLLNYTGTLYDVSVIAHEGGHSMHSYFSRKHQPFHDAQYPIFLAEIASTLNEMLLMDSMLKESDSKEEKITILTRCLDTIFSTLFRQVLFASFEYDIHHAAEHGVPLTEEYLSSTYKNLQNEFYGEIITFDVLSNIEWARIPHFYYNFYVYQYATGIIAALCFLEKILNNEDNALNSYLNFLKSGGSDFPLEILKKSGLDMGTVEPIQKAFCFIEKKIQELSSLIEGHHHHHH | soluble
15 | MRERVCVSHCVLQRTVVCRPRTFVRERIRTQFKLVSLFITMPKSLRKRFVLVSIDDNIEQINAARKLRRYLTNNHLNHIFSSTPEEMKEYLDKLDSGTFNFRETAEEQKSVDPFSEANQPAIQMSSNQEILEKWARGTFAENSDALKLLLEPTNIEEDAVLDDHESENIVNNIPQLFMVNSMDAETPNDSIIVENGKEDQLDMAYCSLCKHEVETGRNRNTKIRKQTEHVLDAHPESEFLNVDIAKRYECVHCLRTLPVSKSPCEHISEHHDKTHVEIEFRDLWSNEQVSTFNSVMEKCFLRHLPVPRSRRIRNGNTWYLSEKASYRIVRGGEIIHISTVADKSKTDNGKESKQSRLDNSERGKPTRSMDSDYDIFDNQDETDSEEGARSESIDTGNKVSESEPGSLQSVIDLE | not soluble
16 | MSEAKWLSLLGLAARARQLLTGEEQVVKAVQNGQVTLVILSSDAGIHTKKKLLDKCGSYQIPVKVVGNRQMLGRAIGKHERVVIGVKDAGFSRKLAALIDE | soluble
17 | MITELTNIHLIKGNLQANSKNEVFAELAQMLLENNRISNKEDFLNDIEIRERLSVTSMDGIAYPHSKSKAVTKPAIAVGVKHEGIEYGDEEGIKPTVFFMIASPDNGADHHIYVLQELFGKFSEEFIEDIHNAKNEHQILNISIQS | not soluble
18 | MSGVWVFKNGVIRLVENPNQSGSDTQNRRKVMVYLPTGEVVSSYSTLEQILQSLGWERYFGGGDTDLLQFHKRSSIDLISLPRDFTKFNSVYMYDIVVKNPNYFHVRDSH | not soluble
19 | MINLPAEGHVNPTLSLVKAFTERGDHVHYITTEHFKGRIEDLGATVYTHPDLLKDISIDTETSYGLNSFFHVHVQTSLYILEITKQLCESINFDFVIYDIFGAGELVKEYLQIPGIVSSPIFLIPTEFLETLPFHPNAEIPFQPDEISEQLLYRMEHEFGVKPKNNLQFMHNKGDITLVYTSRYFQPNSDLFGENNIFIGPSISKRKTNVEFPLELLKGKKVIYISMGTLLEGLEPFFNTCIDTFSDFKGVVVMAIGDRNDRSKIKKAPDNFIIASYVLQSEILNEADVFITHGGMNSVHDAIYFNVPFVIIPHDKDQPMIAQRLTELEAAHRLLKEHVNVQSLKEAVTDVLLNEKYKHGIRKLKDSFLQCGGAKEAISVIKSLLNK | not soluble
20 | MSNRKFNLDNEVQPEIHFRLLSISASKFENDWTSFPHSHHFTEIFFIKDGTGRMLIENESLPVSSNSLVVIGAQVTHTEFSDPENPLDYYVLGVEGLKLNTDKEPEYIHVPASANSPFIRQCFENILREMHNKQDRYAEICQHYLDILILYFCRKDHVSYEVVDAQNSSRECHKVKRFIEHNYQSMISLDSLAENCSLSKYYLSHRFAELYGKSPIAYLNEVRLASARDLLLTTNHSIEEIAGCIGFSSTSYFSQSFQKNFHESPQQFRKSHRVRT | not soluble
21 | MSLLARYLNLIGRRSASPYRPQRLPAKFDNVIVAMSSGVDSSVAAALFAGEFPNTRGVYMQNWSESQSLDDPGKEPCYERDWRDVNRVAKHLNIRVDKVNFEQDYWIDVFEPMLRGYSEGSTPNPDIGCNKFVKFGKLREWLDEKYGTGNYWLVTGHYARVMQEMNGKGLFHLLRSIYRPKDQSYYLSQINSTVLSSLLLPIGHLTKPEVRDLAKYAGLPTAEKPDSQGICFVNNSQHGKFKNFLKHYLPSSPGDIITVDPQSGAKTTWGRHDGLWSYTIGQKVGISMPQADPNYQGTWFVSEKLRDTNEILIVRGRDNPALYSDTMRIENFSSLGPREDTINAFQNTGALTLQFRSLQVPVQIKSCKLNRSADNLDITIHLASKQRAITPGQSCCLYIDDRVLGSGPISHVNNNDTHAEGHHHHHH | not soluble
